Data as given in the nanobody polyreactivity screen of Harvey et al. (2022).

Experiment: yeast display, Sf9 membrane polyspecificity reagent, FACS + sequencing; frameworks hold sequencing errors
Outline: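 Synthetic nanobody libraries on Saccharomyces cerevisiae BJ5465 were galactose-induced for 36–48 hours, stained 1 hour at 4 °C with 10% biotinylated, detergent-solubilized Sf9 membrane reagent and enriched on streptavidin microbeads. FACS then separated cells into low and high (top ~1%) gates by anti-HA (expression) and streptavidin (reagent binding) fluorescence. Genes were colony-PCR amplified, MiSeq 2 × 250 sequenced and CDR-length filtered. A clone's polyreactivity label is that of its gate of origin.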

For “QVQLVESGGGLVQAGGSLRLSCAASGFIFPVNGMGWYRQAPGKERELVAGITRTGTSTYYADSVKGRFTISRDNAKYTVYLQMNSLKPEDTAVYYCAADLYTGRTKYWEFESWGQGTQVTVSS”, the “polyreactivity (PSR sort gate)” value was “low polyreactivity”.
For “QVQLVESGGGLVQAGGSLRLSCAASGRTFYSNAMGWYRQAPGKERELVAAITFGGGSTYYADSVKGRFTISRDNAKNTVYVQMNSLKPEDTAVYYCAAEGYKYRFYYWGQGTQVTVSS”, the “polyreactivity (PSR sort gate)” value was “low polyreactivity”.
With “QVQLVESGGGLVQAGGSLRLSCAASGRIFYSYVMGWYRQAPGKDRELVGAITRSGGTTYYADSVMGRFTISRDNANNPVYLQMNSLKPEDTAVYYCATRSIFNGYGYYHPYNFWGQGTQVTVSS” the “polyreactivity (PSR sort gate)” value was “high polyreactivity”.
With “QVQLVESGGGLVQAGGSLRLTCAASGLIFAENAMGWYRQAPGKERELVASITKSGGRTYYADSVKGRFTISRDNAKNTVYLQMNSLKPEDTAVYDCAAISYFPLRTRYERWFYYWGQGTQVTVSS” the “polyreactivity (PSR sort gate)” value was “high polyreactivity”.
With “QVQLVESGGGLVQAGGSLRLSCAASGSIFAAYTMGWYRQAPGKERELVAAISVSTVSTYYADSVKGRFTISRDNAKNTVYLLMNSLKPEDTAVYYCNAVATDSYPEKDEHDSWGQGTQVTVSS” the “polyreactivity (PSR sort gate)” value was “low polyreactivity”.
With “QVQLVESGGGLVQAGGSLRLSCAASGSTFSKYAMGCYRQAPGKERELVAAISSGGRTNYADSVKGRFTISRDNAKNTVYLQMNSLKPEDTAVYFCAALLGYWAYYYWGQGSQVTVSS” the “polyreactivity (PSR sort gate)” value was “low polyreactivity”.
For “QVQLVESGGGLVQAGGSLRLSCAASGSTFFTYAMGWYRQAPGKERELVAGISYSGGSTYYADSVKGRFTISRDNAKNTVYVQMNSLKPEDTAVYYCNAYISYGDFDLEFYYWGQGTQVTVSS”, the “polyreactivity (PSR sort gate)” value was “low polyreactivity”.
In the case of “QDQHVESGGGLVQAGGSLRLSCAASGSIFPWYTMGWYRQAPGKERELVASITKSGARTYYADSVKGRFTISRDNAKNTVYLEITSLKPEDTAVYYCAASLWQRAKVRYQYWGQGPQVTVSS”, the “polyreactivity (PSR sort gate)” value is reported as “high polyreactivity”.
With “QVQLVESGGGLVQAGGSLRLSCAASGFILNFYAMGWYRQAPGKERELVAAISTSGGSTYYADSVKGRFTISRDNAKNTVYLQMNSLKPEDTAGYYCAARRARTYHTSSGYRGYYYWGQGTQVTVSS” the “polyreactivity (PSR sort gate)” value was “high polyreactivity”.
With “QVQLVESGGGLVQAGGSLRLSCAASGRTFFPYAMGWYRQAPGKEREFVAAITKTDDTTYYADSVKGRFTISRDNAKNTVYLQMNSLKPEDTAVYYCNAGDTQIRFYYWGQGTQVNVSS” the “polyreactivity (PSR sort gate)” value was “low polyreactivity”.
In the case of “QVQLVESGRGLVQAGGSLRLSCDSSGLTFTYNAMGWYRQAPGKERELVAVISYGGGSTYYADSVKGRFTISRDNAKNTVYLQMNSLNPEDNAVYYCAAVYGGYLYYYGGYAEYDYWGQGTQVTVSS”, the “polyreactivity (PSR sort gate)” value is reported as “low polyreactivity”.
For “QVQLVESGGGLVQAGGRLRLTCAASGLTFYSYAMRCYRQAPAKERELVAAISWTGGSTYYADSEKGRFTISRDNAKNTVYLQMNSLKPEDTAVYYCAAVDYWVSGDYYWGQGTQVTVSS”, the “polyreactivity (PSR sort gate)” value was “high polyreactivity”.
For “QGQLEESGGGLVQAGGSLRLSCAASGFTIYRYAKGWYRQAPGKAMELVAAISNSGGSTYYADSVKGRFTISRDNAKNTVYVQMNSLKPEDTAVYYCAADPGYNVYGYYYWGQGTQVTVSS”, the “polyreactivity (PSR sort gate)” value was “high polyreactivity”.
In the case of “QVQLVESGGGLVQAGGSLRLSCAASGSTFVYNAMGWYRQAPGKERELVAAITNSGSTYYADSVKGRFTISRDNAKNTVYLQMNSLKPEDTAVYDCAARSRVYWARSGYWGQGTQVTVAS”, the “polyreactivity (PSR sort gate)” value is reported as “low polyreactivity”.
With “QVQLVESGGGLVQAGGSLRLSCAASGRIFTRNAMGLYRQAPGKERELVAAISWRGGSTYYADSVKGRFTISRDNAKNTVYLQMNSLKPEDTAVYYCAAQPWFGRAARYRTTYYYWGQGTQVTVSS” the “polyreactivity (PSR sort gate)” value was “high polyreactivity”.
In the case of “QVQLVESGGGLVQAGGSLRLSCAASGSTSLFYAMGWYRQAPGKERELVAGITNTARTYADSVKGRFTISRDNAKNTVYLQMKSLKPEDTAVYYCATGYNRWRPTFPFYYWGLGTQVTVSS”, the “polyreactivity (PSR sort gate)” value is reported as “high polyreactivity”.
With “QVQLVESGGGLVQAGGSLRLSCAASGNIFVYYAMGWYRQAPGKERELVAAISFRGGTTYYADSVKGRFTISRDNAKNTVYLQMNSLKPEDTAVYYCAKDIFQIGYRRYDSWGQGTQVTVSS” the “polyreactivity (PSR sort gate)” value was “low polyreactivity”.
In the case of “QVQLVESGGGLVQAGGSLRLSCAASGSTFRQNALGWYRQAPGKERELVAAITYRVASTYYADSVKGRFTISRDNAKNTVYLQMNSLKPEDTAVYYCAAYKRRSNGRYWTYDYWGQGTQVTVSS”, the “polyreactivity (PSR sort gate)” value is reported as “high polyreactivity”.
For “QVQLLESGGGLVQAGGSLRLSCAASGSIFVGYAMGWYRPAPGKERELVASITTPGGSTHYADSVKGRFTISRDNAKNTVYLQMNSLKPEDTAVYYCAADSLSNGVLQYLPGYDYWGQGTQVTVSS”, the “polyreactivity (PSR sort gate)” value was “low polyreactivity”.
In the case of “QVQLVESGGGLVQAGGSLRLSSAASGFILRTNAMGWYRQAPGKERELVAAISVSGGRTYYADSVKGRFTISRDNAKNTVYLQMNSLKPEDTAVDYCAARDSTKLLSGYTHYYWGQGTQVTVSS”, the “polyreactivity (PSR sort gate)” value is reported as “high polyreactivity”.
With “QVQLVESCGGLVQAGGSLRLSCAASGYTFGSNAMGWYRQAPGKERELVAAISTNGGRTNYADSVKGRFTISRDNAKNTVYLQMNSLKPEDTAVYYCNTRLRVRYYLSGFDYWGQGTQVTVSS” the “polyreactivity (PSR sort gate)” value was “high polyreactivity”.
For “QVQLVESGGGLVQAGGSLRLSCAASGSILAYYARGWYRQAPGQERELVADIRAGGGNTYYADSVKGRFTISRDNAKNTVYLQMNSLKPEDTAVYYCNADWHFWYKWESYDYDYWGQGTQVTVSS”, the “polyreactivity (PSR sort gate)” value was “low polyreactivity”.
In the case of “QVKLVESGGGLVQAGGSLRLSCAASGLTFATYAMGWYREAPGKERELVAAISYSGDSTYYADSVKGRFTISRDNAKNTVYLQMNSLKPEDTAVYYCAKRLKRYRSSYKTFKLDYWGQGTQVTVSS”, the “polyreactivity (PSR sort gate)” value is reported as “high polyreactivity”.
For “QVQLVESGAGLVQAGGSLRLSCAASGRIFDNYVMGWYRQAPGKERELVAAISSGGGTYYADSVKGRFTISRDNAKNTVYLQMNSLKPEDTAVYYCAKRRVYDRSFGRYDYWGQGTKVTVSS”, the “polyreactivity (PSR sort gate)” value was “low polyreactivity”.
In the case of “QVQLVESGGGLVQAGGSLRLSCAASGRIFSVNAMGWYRQATGKERELVASITMSGGSTYYADSVKGRFTISRDNAKNTVYIQMNSLKPEDTAVYYCAKGWSRYNDRERDDEYWGQGTQVTVSS”, the “polyreactivity (PSR sort gate)” value is reported as “low polyreactivity”.
In the case of “QVQLVESAGGLVQAGGSLRLSCAASGFIFPRYAMGWYRQAPGKERELVAAISYSGGSTYYADSVKGRFTISRDNAKNTVYLQMNSLKPEDTAVYYCNAYFLSQYQRAYRDDYWGQGTQVTVSS”, the “polyreactivity (PSR sort gate)” value is reported as “high polyreactivity”.
In the case of “QVQLVESGGGLVQAGGSLRLSCAASGSTIYDYTMGWYRQAPGKERELVAAISSDGSTYYADSVKGRFTISRDNAKITVYLKMNSLKPEDTAVYYCNADAGFLSLRGYDYWGQGTQVTVSS”, the “polyreactivity (PSR sort gate)” value is reported as “low polyreactivity”.
In the case of “QVQLVESGGGLVQAGGSLRLSCAASGLIFRYNAMGWYRQAPGKERELVAAISRSGGTTYYADSVKGRFTISRDNAKNTVYLQMNSLKPEDTAVYYCATRISQSYYNYGYWGQGTQVTVSS”, the “polyreactivity (PSR sort gate)” value is reported as “high polyreactivity”.
For “QVQLVESGGGLVQAGGSLRLSCAASGRIFDRNAMGWYRQAPGKERELVARIDPGDDTNYADSVKGRFTISRDNAKHTVYLQMHSLKPEDTAVYYCATDPDYVLFRTAYYEYDYWGQGTQVTVSS”, the “polyreactivity (PSR sort gate)” value was “low polyreactivity”.
In the case of “QVQLVESGGGLVQAGGSLRLSCAASGGIFRYYAMGWYRQAPGKERELVATITSGSITNYADSVKGRFTISRDNAKNTVYLQMNSLKPEDTAVYYCAALGAFPSLEFDYWGQGTQVTVSS”, the “polyreactivity (PSR sort gate)” value is reported as “low polyreactivity”.
For “QVQLVESGGGLVQAGGSLRLSCAASGSTFYVNAMGWYRQAPGKERELVAGISYNAGSTYYADSVKGRFTISRDNAKNTVSLQMNSLKPEDTAVYYCAAYPYWRWYGYLGYDYWGQGTQVTVSS”, the “polyreactivity (PSR sort gate)” value was “low polyreactivity”.
In the case of “QVQLVESGGGLVQAGGSLRLSCAASGRIFSHYAMGWYRQAPGKERELVAAINRSGGSTYYADSVKGRFTISRDNAKNTVYLQMNSLKPEDTAVYYCAATSLRRYGYNYWGQGTQVTVSS”, the “polyreactivity (PSR sort gate)” value is reported as “high polyreactivity”.
In the case of “QVQLVESGGGLVQAGGSLRLSCAASGSIFDDYAMGWYRQAPGKERELVAAISDSGGSTSYADSVKGRFTISRDNAKNTVYFQMNSLKPEDTAVYYCNADRDDDYDYWGQGTQVTVSS”, the “polyreactivity (PSR sort gate)” value is reported as “low polyreactivity”.
For “QVQLVESGGCLVQARGSLRLSCAASGSTFTYNTMGWYRQAPGKESELVAGITKSGGSTYYADSVKGRFTISRDKAKNTVYLQMNSLKPEDTAVYYCATSTSRRYGSRHNYWGQGTQVTVSS”, the “polyreactivity (PSR sort gate)” value was “high polyreactivity”.
In the case of “QVQLVESGGGLVQAGGSLRLRCAASGRTFGPYTMGWYRQAPGKEREFVAAINSSGSRTYYADSVKGRFTISRDNAKNTVYLQMNSLKPEDTAVYYCAAEAKWYYSWSYPYEGDYWGQGTQVTVSS”, the “polyreactivity (PSR sort gate)” value is reported as “low polyreactivity”.
In the case of “QVQLVESGGGLVQAGGSLRLSCAASGSIFWSYAMGWYRQAPGKERELVAAITYSGTSTYYADSVKGRFTISRDNAKNTVYLQMNSLKPEDTAVSYCAASPYSRSRYDYWGQGTQVTVSS”, the “polyreactivity (PSR sort gate)” value is reported as “low polyreactivity”.
With “QVQLVESGGGLVQAGGSLRLSCAASGRTFSTNAMGWYSQAPGKERELVAAISARGGSTYYADSVKGRFTISRDNAKNTVYLLLTSLKPEDTAVDYCARRPGRYSYAFDYWGQGTQVTVSS” the “polyreactivity (PSR sort gate)” value was “high polyreactivity”.
In the case of “QVQLVESGGGLVQAGGSRRLSCAASGSISNRYAMGWYRPAPGKEREFVARIRRRGGSTNYADSVKGRFTISRDNAKKTVYLQMNSLKPEDTAVYYCNAYPYQLDYDYWGQGTQVTVSS”, the “polyreactivity (PSR sort gate)” value is reported as “high polyreactivity”.
For “QVLLVESGGGLVQAGGSHRLSCAASGITIRFYAMGWYRQAPGKEREFHAAISRSGSTYYADSVKGRFTISRDNAKNTVYLHLNSVKPEDTAVYYCAADSYRSAQGLDYWGQGTQVTVSS”, the “polyreactivity (PSR sort gate)” value was “high polyreactivity”.
For “QVQLVESGGGLVQAGGSLRLSCAASGRIFVHNAMGWSRQAPGKERELVAAISSGGSTYYADSVKGRFTISRDNAKNTVYLQMNSLKPEDTAVYYCAIYAYYNKYDYWGQGTQVTVSS”, the “polyreactivity (PSR sort gate)” value was “high polyreactivity”.
With “QVQLVESGGGLVQAGGSLRLSCAASGLIFDTYAMGWYRQAPGKEREWVADITWSGGSTYYADSVKGRFTISRDNAKNTVYLQMNSLKPEETAVYYCAADSVSLFYWDQRYPDEYDYWGQGTQVTVSS” the “polyreactivity (PSR sort gate)” value was “low polyreactivity”.
In the case of “QVQLVESGGGLVQAGGSLRLSCAASGFIFIAYTMGWYRQAPGKERELVAAISSRGGRTYYADSVKGRFTISRDNAKNTVYLQMNSLKPEDTAVYYCAASYTYYSFGFGTDVRYGYWGQGTQVTVSS”, the “polyreactivity (PSR sort gate)” value is reported as “high polyreactivity”.
For “QVQLVESGGGLVQAGGSLRLSCAASGSTFSSYAMGWYRQAPGKERELVAGIAWGGSSTDYADSVKWRFTISRDTAKNTVYLQMNSLKPEDTAVYYCARRYRRGWSTLDYWGQGTQVTVSS”, the “polyreactivity (PSR sort gate)” value was “low polyreactivity”.
